According to the DeepSol protein solubility set:

Assay: soluble on expression in E. coli; label from the status in PepcDB or PDB records

Sequence	soluble on expression in E. coli
MNNEPLRPDPDRLLEQTAAPHRGKLKVFFGACAGVGKTWAMLAEAQRLRAQGLDIVVGVVETHGRKDTAAMLEGLAVLPLKRQAYRGRHISEFDLDAALARRPALILMDELAHSNAPGSRHPKRWQDIEELLEAGIDVFTTVNVQHLESLNDVVSGVTGIQVRETVPDPFFDAADDVVLVDLPPDDLRQRLKEGKVYIAGQAERAIEHFFRKGNLIALRELALRRTADRVDEQMRAWRGHPGEEKVWHTRDAILLCIGHNTGSEKLVRAAARLASRLGSVWHAVYVETPALHRLPEKKRRAILSALRLAQELGAETATLSDPAEEKAVVRYAREHNLGKIILGRPASRRWWRRETFADRLARIAPDLDQVLVALDEPPAR	soluble
MPPKKVSPGITVILIDAGSNMSVKDTETGKSAFENAINAADWIVSRKLFSKDPELFSVMAYNLDPKEYKTEVGGQTFNGVQCQNEKFTPASFDHLKFITKELQQNTEMIDPNFFKGVLGAVAVLKDQIESYPNPSGITLIVLTNGLNENIRQENFDLLVEAVSESNADLMIIGIDENPEYPASRVAELAETLEGRTYTFQNVAKMLSTFQARQKSERKYNKMWDIAPGIHLPVIFALKSEKSTALLKFKNADSEGNEMVRLEQMHVETDEVAPKDEFKSPVLEEKPKFQKNFKPVENIKTMHGSEILNFLKSIINASGYNFGKSVIMMDPEYLKEKYNDHNFNEGQTGGVLKLIQFTKRANILDSYLLDASAKTVLPALNSPKSGATKATVSLIEAMLSLRVAAICRYTFHAKSHVQLIALLPHQDEETGVFYLRSVKLPFSDDMRTLKFPKFSFDEEDEDLNKPTVAQLSAVDDLIDCMQLQEDEISSLVEGGMSDPKLQMQCHFLKSLVLHPNDTFENHSNRTNQILDQIMAPKRRVEAEHPEIFQKLGREFNLQPIQKTKRERVTVEPEDLQTMISEWTEKKQNMTQPDEVDDGASQKKKKKPNAKKLTRKEEVQMDIMEDGGASRVCSKILEMISNTCKFQPNGAVTEFFTLLVNELNVIRSVFVENSKCDEFNELLKKLKDEEDFEPFAEVLSEEKSCNPIDSSEVSMSEVSVANAAEFWEED	not soluble
SAVDRDIFGISGPTYLNPVNWNCEHNRRSVAACLVQAVYVLERDRQLGRQSVEALGPPWWEFFHFELIRKLVDDADLSIFGAIFEFNPPSSKESSADNAPRFVIAFRGTITEKETISRDIALDLHLVQNGLHRTSRFTIAMQAVQNVASVFPGSNIWLAGHSLGAGMAILTGRNMVKKGVLLESYLFNPPFVAAPIERISDERVKHGFRIARSVITAGLAIAMKGKGEGSSQRSVAEDSFHILSSWTPYLFVNPGDHICSEYIGYFQHRKNMEDLGAGFIEKLATQNSIGDLFYKALGWESEPLHLLPSADLIVNVSPSPDFKYAHGISQWWQPELNLQCSKYRYSVGA	soluble
MSLDIAELHRAGDDIKEMMKSEGYYSEPSKYEAELSDGNITFAYSYPIKAFEKFLGYYDRENRIAFNPSISMRTDFSFCLAACRYRKNGKTDTVVLDGYADNKYYKKAKFALDKFRSEYSINGSFDFYIKRYRRYQKAKGLSESSAVAAAVSRALISNVFGDDAAKDDIFVSRYARLVSGSGTRAAHDGISMWLSYPGMDSRDCVAFKVGKSNENLNYGVFPKYSDVATDNAHSIAVNSVFYGTWVSEKFSNVKRLISDHFDINDLLKIGENDMLRLNSILMSGGLIIQTPDSLRILKEILKFKSKNEGFYFTADTGPSIAIFSFDRSLIDEFRENVNDEYIEGSYDFKGYNNRMRDFIREAQEYFTQTPGEDEEDREGHHHHHH	soluble
MGSDKIHHHHHHMTSKLTEVSTPPQAAMPKSTLANEQENKVFIIGLPRTGTTSVSVALLEQGLTVAHQAFTKQAFMLADAVSDAPCFSDYQQLDKLFPNAKFVYLDRPLDKWLPSMQMLLGRMLVHLDKDKGRFHPVMKRSFNHCFDIWQVEDVFDEAHLTACYQRHQQQVMSYFAGRDDFISIDISVTGSLAKLLQFIDLAKPDTAEFRQLQYPQLQSQPQNFPQLNFPQLNFPQLNTGRNVASWDEYKHPNKISANASGPDKRKFFDYRL	not soluble
MGSDKIHHHHHHMAESKTKRLLYFMSELEKGNQINKEEYIAKFNISDRTMKEDVSELKTNLKELRPNMQIKFSRKHACYFASYEQGYGNLKYNQAVILSKILLESRALRKEEVAEIINIFVERAVDDKERTRIKKLTQFELNSYQELKFYQKSNKSILPTISAIFDAIVDQRPLAFSYTKPSSKVEEYIVLPISVIFDNHYFYCISYKLDNCFQSRYELQELRYFRVDRFKTIHKSISNSAFALTEEEQERLITDEQVRYQTFSMLSDQKWVRIQFRYTGQFRDVLEADIPKLKMINELEEGIIYEIETLSLLGFQKYIQRFDGDFVFLNIKSIKK	not soluble
KISKISTGIPRVDELLYGGFDGRDNIVVSGNNFSQKRSFIYNFIKSSANSGMKVIIINVDGSSESLLADLARRGTDLENIILLDGFSKNFQEKVPPNAEVIDDPSNVSSVLKQYMLRAQKEKDFIFVFLSATPYLMDFNDQNRKFFVQLVHWNRKNSLLSTYVLDDFVGQTTAEWFAYMMDFSLYFKNDGDYDYMRVLSLKPVRTKDW	soluble
MAQISGNQTGIGSIHPLLHQNTSDFSEQKFSSVFTGDEFFLRDHVVRGKPVLPGVAYLEMAYAAINQAAGSEIGQDVRIRLNHTVWVQPVVVDRHSAQVDISLFPEEDGKITFDIYSTQEDGDDPVIHSQGSAELASAAETPVADLTEMSRRCGKGKMSPDQFYEEGRSRGMFHGPAFQGIKNVNIGNREVLAQLQLPEIVSGTNEQFVLHPSIMDSALQTATICIMQELTDQKLILPFALEELEVIKGCSSSMWAYARLSDSDHSGGVVQKADIDVIDESGTVCVRIKGFSTRVLEHHHHHH	soluble
MLARGKTNLKIEEIRMHKHHEIHRVKPLMPALCRIRQGKKVINWETHTLTVDNNQIILFPCGYEFYIENYPEAGLYLAEMLYLPIDLIESFQKLYTVTDQIRNKTSFFLPQNPELIYCWEQLKTSVSRGFSTKIQEHLAMGVLLSLGVNHVNHLLLSYSKQSLISRCYNLLLSEPGTKWTANKVARYLYISVSTLHRRLASEGVSFQSILDDVRLNNALSAIQTTVKPISEIARENGYKCPSRFTERFHNRFNITPREIRKASRE	soluble
MSLSKPLQVNPHKLSPVMGAHLACLGVDGVMPIIHGAQGCSNFSKVFFTRHFSEPIVSHSTAVNDITAVLDGGACVAEAIDTLAKKSPFKLAAIITTGLTETKGDDVKGAIGQLSYPALYFPTPDYEGGLEEGFALAIEVFIKERMVSVTTPDPKLALILPHASMTPLEVEKLKEFLEDFGVRALALPDLSGSLDGHLEERQGSVSKGGITLEEIEEASRAGMILSIGESTRKARQAFLAKNPGAFDLNVESLYGLRSSDALIRALMDWTGHEPSVRIKRWRARLQDMMLDSHFALGGKRVIAALENDHLLGISKILEEVGMSFELAVATTGGPAMTKISAKEAVVGDLEHLMQNIESSEGVIACERLGGFLPKETPWLVRGYPIFERIGTGLGNDILYEGGCYLLKELANLFLKEHQAHEGHHHHHH	soluble
MFEKGIWLNEPRQWSVTDQRLTVITDPETDFWQQTHYGFCRDTGHFLGVSVKGEFTAQVHVQGDFKTLYDQAGLMVRVDERNWVKTGVEVSDGALMLGSVLTWGQSDWATGVFDDSSSGLWLRVTVAKGVMRIQHSSDGLRWPLLRLAAFPLSERYAVGAMCCSPERGGLKVVFSHFEVMPALGKDLHDLTLEHHHHHH	not soluble
MEPHSLRYNLMVLSQDESVQSGFLAEGHLDGQPFLRYDRQKRRAKPQGQWAEDVLGAETWDTETEDLTENGQDLRRTLTHIKDQKGGLHSLQEIRVCEIHEDSSTRGSRHFYYNGELFLSQNLETQESTVPQSSRAQTLAMNVTNFWKEDAMKTKTHYRAMQADCLQKLQRYLKSGVAIRRTVPPMVNVTCSEVSEGNITVTCRASSFYPRNITLTWRQDGVSLSHNTQQWGDVLPDGNGTYQTWVATRIRQGEEQRFTCYMEHSGNHGTHPVPSGKVLVLQSQRTDFPYVSAAMPCFVIIIILCVPCCKKKTSAAEGP	soluble
MAHHHHHHSLNVLKDKLSGKNVKIVLPEGEDERVLTAATQLQATDYVTPIVLGDETKVQSLAQKLDLDISNIELINPATSELKAELVQSFVERRKGKATEEQAQELLNNVNYFGTMLVYAGKADGLVSGAAHSTGDTVRPALQIIKTKPGVSRTSGIFFMIKGDEQYIFGDCAINPELDSQGLAEIAVESAKSALSFGMDPKVAMLSFSTKGSAKSDDVTKVQEAVKLAQQKAEEEKLEAIIDGEFQFDAAIVPGVAEKKAPGAKLQGDANVFVFPSLEAGNIGYKIAQRLGGYDAVGPVLQGLNSPVNDLSRGCSIEDVYNLSIITAAQALQEG	soluble
MRLFIVQAMFTEYRPTHGYDEYFCREQSAPRADLEPLLSSLGAMGLAELNRSHASASNLLRRLGATFRLNGSGLHGGERILPFDPLPRLIHRQEWSVLERGLVQRLEAIDQFLADVYGPQRILNDGVIPREDVESSQGWRPQMQDIAVPLNRWCHISGLDLIRDGDGTWRVLEDNLRCPSGVAYFLENRRVMKRLFPSLFQGRTVQPIDDYPSHLLRTLQDLAPWSDAPRVVLLTPGVFNSAYFEHSYLAQQMGIALVEGRDLICEDGRVWMRSTAGREPVDVIYRRIDDDFLDPNVFRRDSMLGVPGLIDAMRSGRVAIANAPGSGVADDKLIYAYVPAMIRYYLNEEPIIDNVPTYLCSRDDDRRYVLEHLNELVVKSVAEAGGYGMLIGPHASSEEIESFAVKIKAHPRNFIAQPTLQLSTVPSLSEGELYPCHVDLRPYVLRGKSDWVSPGGLTRVALKRGSLVVNSSQGGGCKDTWVVSDSAVTAGNQELVPC	not soluble
MAENKQASEGLAEDLIRSMVQTASIELHLKTLVEKRQSEMDNGLIDTNDFNRVNEQIDVLKNLKEELFEVTEQRRQDMRTLFDLFEGKGDKEQWCIVKHAAMAMYTAFEAWQASDNDRLLYQICIEKNAYFIKKITQFTGVPITECASCFSDMMKGAIDDEG	not soluble
MGSDKIHHHHHHMKIAIASGKGGTGKTTVAVNFAQVLAAAGQEVTLLDCDVEEPNVHLFLHPEFDSVSAVETTIPQVDEEKCTGCRVCAEVCEYHALAVLGKNVLVFPELCHACGACVRFCPEEAIVEIPREIGTIRKGRKGKIRLIEGRLNVGEVMSPAVIERVKKIGLDGKIGIIDAPPGTSCPVIAAVRDTDGVLLVTEPTPFGLYDLKLAVGMVRLLGIPCAVAINRSDLGEKELWRYCSDERIPIILEIPNDRRIAEAYSRGRTIIEELPEYREKFLQGWQALLESCSIA	not soluble
MKAEGLSGGYGDSRLINNVSLTVEKGEFLGILGPNGSGKTTLLHLLTGTLPAKKGRVYLAGKLLADYKPKELAQIMAVLPQKMDQAFTFTVEETVAFGRYPFQTGLFRQQTEKGEAIVQEAMEQTGVADFAQKPIRELSGGEQQRVYLAQALAQQPRILFLDEPTNFLDLAYQKDLLDLIKRLTRESGLAAVSVFHDLNTASLYCDGLMFMKNGTAGPKQKPEYAVTEQSIKAVYDTDVTALVHQSSPKPMIVIQPEKDSVKRQSIPFEALLQAGRDDILLQTEIPLRTLSSTPIGAGFSWSRTLIHKRLPDQPDPIEGLTACLSESGFQLQETCAMASSERLDRFVYRTYEDGELSVFICVQTGFSIWILINGYAADQFFIKALMAAEAERTKVLGDGGGTGDILIAATQTQQSENIEQRLNQLIKKGTAECIKEAAELF	not soluble
MSLNRIILIGNGFDLAHGLPTRYEDFINWYWEKRVDSFIGNLTPISEDCLCSIKITSDNYNRCWNVFAFCLPKFFNKPSGKEIIDSIANDSKSFELSLSPFFFNICTCIETKGWVDIEKEYYDLLRNAIINPDNCNYTISEINKQLHYIQGLLAQYLSSITTDNIKCNKEIQRQIYGNIRKDDVSISQLQVYYDYVDHLIQQDNVYQQLLCRYGYESSDRHFMAEDIKQLRKQFVGSSEIEEIYLKDLIFPENIVLLNFNYTEVADKYGCLKVASTNHIHGDLNNPDSIIFGYGDELDEDYRDFLKQSDNECLRNIKSIKYLESGKYRNLLQFIESAPYQVYIMGHSCGNSDRTLLNTLFEHKNCVSIKPYYYQKDDGSDNYLEIAQNICRNFTDMKLMRDRVVNKMFCEPLPQYIKEGHHHHHH	soluble
